This data set addresses Schizochytrium PUFA PKS Orf A protein (carrying nine ACP domains).

Sequence of Schizochytrium PUFA PKS Orf A protein (carrying nine ACP domains) (chain, as listed by the source): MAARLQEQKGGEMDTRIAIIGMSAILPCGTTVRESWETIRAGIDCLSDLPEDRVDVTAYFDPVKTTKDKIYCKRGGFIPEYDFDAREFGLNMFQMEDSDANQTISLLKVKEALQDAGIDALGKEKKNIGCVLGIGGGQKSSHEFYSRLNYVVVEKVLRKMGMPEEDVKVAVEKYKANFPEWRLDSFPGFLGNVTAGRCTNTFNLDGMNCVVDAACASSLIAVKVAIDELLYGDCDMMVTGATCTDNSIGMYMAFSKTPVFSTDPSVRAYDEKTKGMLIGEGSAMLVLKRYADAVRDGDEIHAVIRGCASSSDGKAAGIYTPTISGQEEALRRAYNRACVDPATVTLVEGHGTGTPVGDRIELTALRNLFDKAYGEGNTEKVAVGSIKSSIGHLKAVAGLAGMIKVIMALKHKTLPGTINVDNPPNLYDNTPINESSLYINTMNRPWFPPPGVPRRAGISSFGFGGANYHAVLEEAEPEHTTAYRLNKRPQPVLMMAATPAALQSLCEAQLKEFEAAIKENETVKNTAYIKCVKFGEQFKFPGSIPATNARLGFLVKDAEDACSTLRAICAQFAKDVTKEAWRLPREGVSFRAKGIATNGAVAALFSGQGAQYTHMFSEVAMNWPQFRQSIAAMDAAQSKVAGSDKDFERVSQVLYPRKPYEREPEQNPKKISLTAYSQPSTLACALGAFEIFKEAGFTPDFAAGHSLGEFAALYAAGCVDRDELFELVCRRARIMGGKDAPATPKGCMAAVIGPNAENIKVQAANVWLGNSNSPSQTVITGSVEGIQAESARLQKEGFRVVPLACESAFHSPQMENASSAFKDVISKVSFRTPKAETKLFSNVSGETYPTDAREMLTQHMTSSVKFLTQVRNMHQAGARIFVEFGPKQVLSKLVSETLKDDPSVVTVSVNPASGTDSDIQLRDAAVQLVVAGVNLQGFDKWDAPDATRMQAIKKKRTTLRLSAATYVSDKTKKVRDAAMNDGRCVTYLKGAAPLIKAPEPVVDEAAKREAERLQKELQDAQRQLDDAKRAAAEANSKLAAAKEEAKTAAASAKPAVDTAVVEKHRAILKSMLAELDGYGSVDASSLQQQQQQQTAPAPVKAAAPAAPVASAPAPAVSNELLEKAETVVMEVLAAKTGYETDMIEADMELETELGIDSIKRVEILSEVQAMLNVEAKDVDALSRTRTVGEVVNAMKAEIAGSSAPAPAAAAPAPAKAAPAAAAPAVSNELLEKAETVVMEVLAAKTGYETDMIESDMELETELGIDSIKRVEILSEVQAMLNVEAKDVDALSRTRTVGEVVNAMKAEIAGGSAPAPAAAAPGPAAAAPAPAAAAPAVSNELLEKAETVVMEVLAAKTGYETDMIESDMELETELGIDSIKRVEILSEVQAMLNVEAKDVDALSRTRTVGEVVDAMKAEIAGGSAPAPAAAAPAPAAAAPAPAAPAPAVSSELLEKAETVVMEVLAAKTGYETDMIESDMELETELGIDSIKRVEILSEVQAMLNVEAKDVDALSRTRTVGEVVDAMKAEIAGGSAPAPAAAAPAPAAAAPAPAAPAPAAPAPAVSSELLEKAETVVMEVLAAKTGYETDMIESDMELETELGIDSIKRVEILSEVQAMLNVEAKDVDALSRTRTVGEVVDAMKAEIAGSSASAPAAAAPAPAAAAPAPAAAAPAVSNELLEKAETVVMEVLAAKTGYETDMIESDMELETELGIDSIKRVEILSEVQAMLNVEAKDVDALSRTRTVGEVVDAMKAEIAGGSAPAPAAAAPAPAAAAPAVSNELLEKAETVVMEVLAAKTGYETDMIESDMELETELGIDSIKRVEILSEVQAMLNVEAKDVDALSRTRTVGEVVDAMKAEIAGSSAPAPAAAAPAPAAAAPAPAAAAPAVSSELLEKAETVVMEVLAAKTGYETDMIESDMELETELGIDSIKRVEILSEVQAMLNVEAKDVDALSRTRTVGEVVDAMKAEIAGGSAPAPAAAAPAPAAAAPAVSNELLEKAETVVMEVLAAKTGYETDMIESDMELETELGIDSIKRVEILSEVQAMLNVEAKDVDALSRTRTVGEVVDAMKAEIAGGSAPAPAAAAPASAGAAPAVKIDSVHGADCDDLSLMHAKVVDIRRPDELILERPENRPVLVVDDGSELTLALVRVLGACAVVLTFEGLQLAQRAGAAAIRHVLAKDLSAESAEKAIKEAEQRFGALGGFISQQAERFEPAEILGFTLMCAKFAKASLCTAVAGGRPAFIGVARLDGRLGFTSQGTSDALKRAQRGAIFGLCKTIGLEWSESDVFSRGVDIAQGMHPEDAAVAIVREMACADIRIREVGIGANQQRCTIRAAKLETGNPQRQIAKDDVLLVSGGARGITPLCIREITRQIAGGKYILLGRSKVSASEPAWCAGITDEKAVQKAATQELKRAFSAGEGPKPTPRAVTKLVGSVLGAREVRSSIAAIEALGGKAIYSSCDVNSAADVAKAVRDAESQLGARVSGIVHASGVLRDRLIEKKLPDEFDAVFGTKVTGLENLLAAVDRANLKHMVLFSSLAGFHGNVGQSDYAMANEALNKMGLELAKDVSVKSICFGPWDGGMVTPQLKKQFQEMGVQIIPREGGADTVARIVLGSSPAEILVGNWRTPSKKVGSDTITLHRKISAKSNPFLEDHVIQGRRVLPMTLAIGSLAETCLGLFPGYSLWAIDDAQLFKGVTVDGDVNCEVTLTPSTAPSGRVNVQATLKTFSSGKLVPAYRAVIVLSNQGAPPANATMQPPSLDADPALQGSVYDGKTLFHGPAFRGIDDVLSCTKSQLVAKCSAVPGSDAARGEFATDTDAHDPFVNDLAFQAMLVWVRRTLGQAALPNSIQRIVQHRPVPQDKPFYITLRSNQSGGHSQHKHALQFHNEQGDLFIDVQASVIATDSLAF

B1: sfp PPTase (phosphopantetheine transferase derived from Bacillus subtilis) (protein)
chain: MKIYGIYMDRPLSQEENERFMSFISPEKREKCRRFYHKEDAHRTLLGDVLVRSVISRQYQLDKSDIRFSTQEYGKPCIPDLPDAHFNISHSGRWVICAFDSQPIGIDIEKTKPISLEIAKRFFSKTEYSDLLAKDKDEQTDYFYHLWSMKESFIKQEGKGLSLPLDSFSVRLHQDGQVSIELPDSHSPCYIKTYEVDPGYKMAVCAAHPDFPEDITMVSYEELL
In the case of B1, the “DHA production in E. coli co-expressing the PPTase with Orf A, B*, C (FAME analysis by gas-liquid chromatography)” value was “Co-expression of the sfp construct in cells expressing the Orf A, B*, C proteins, under certain conditions, resulted in DHA production”.

For the origin of these results see patent publication US20040235127.
